# Results taken from the domain aggregation screens of Martell et al. (2025).
# Test: soluble fraction after stress (log2 fold change); higher = more stays soluble; pooled small domains, quantitative proteomics
# Details: stress: pH 4
# Outline: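 Custom libraries of small protein domains were pooled and measured with high-throughput quantitative proteomics after pH 4 stress. The read-out is the fold change in the amount of each domain that stays soluble after the acid stress, taken as a measure of aggregation propensity. Fold changes are on a log2 scale, and higher values mean more of the domain stayed soluble.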
row,Sequence,soluble fraction (log2)
1,HMRPQIAIDAIQALSLIMRTENKEDPTYLESRRVVSDAVAKRLSLNPTDLNRAWSRAPRDHQIAVLSALTQ,-0.184
2,HMRPRGTRLPTGWTPSSDALDWTKAEKPGLDPLQTLEKFRDYWTAQPGQKGVKTDWDATWRNWVRREIP,0.0989
3,HMRPSGTAGILRYLSSGAIRGIGATTAQRLVSEFGEKTLDVMENEPERVAMLKGISKSKAEDFSLQLKQS,0.0932
4,HMRPTAWEQVSRHIDQHGSIGNTEVRKAMETENVLAASKQIKKWLEQGLLIILNPTAGTRARRYSKPNM,-0.0247
5,HMRPTDVLNYDESMRILNFSNNRVGFKHLMDAKGIEQVIFKNRKIGYRKSEILALKSELEAEQK,-0.0346
6,HMRPYAYGTGRRKSSTARVHLIPNGSGSITINGRTLDEYFGLETLKLIVRQPLAATETAEKFDVEATVV,-0.509
7,HMRQDEKTLLYWIGAQVKREGKLIKTSTAQYLVEKTGTDMENLEKELEKLFAYTLDEKEITPAAIDEI,-1.21
8,HMRQIRELFRLKFGSLLPTSDRQIAAQLGVARSTVAEYLERARAAGLSWPLPLDLSDADLEERLFA,≥ 0.43
9,HMRQMSEELQSAKEALEDRRTQEKAVLLLMEHRNISNDEAHRLLRKLAMDQGKRLPEVARALVSMAGVL,-0.203
10,HMRQSKMREAILAAVSAQKLEISDLHVWRIGEQRYAAIIGLATTQAESVSALRDSLAQMDKLVHLTIDQ,-1.16
11,HMRQTGWVTADSLNVRARPSLQAERVEKVTYGQQVQIMFKQGQWYQIATENGKIGWVSSEYIAAVSP,0.0725
12,HMRRELDSEHKRQEILFAAKRLLLAEGYDATSMSRLAKEAGVAPNTLYWYFKDKDELLIAILDELVAE,-1.09
13,HMRRGKLGMASRLEQIPGIGPKKRKALLKAFGNSIDAIKSAPVEDLMKVKGINLVLAESIKEL,0.374
14,HMRRMTEEQSKLFQGLVSIVQTTLVADMEKGAVTPLLIAEKVDFVADNLYPGKDIDRKEAVAELIRRFSLW,-0.875
15,HMRRSKQERQQAIKTLISNEQIQRQEDLVRKLNEAGWEVTQATISRDITEMQLVKVPLPTGGFAYAVM,-0.31
16,HMRRSKVMLESILDEIPQMGQARRAALLEQFGSVAALRKASLAEIAMTPGIGEKIAVIIFEYLQKSSH,-0.067
17,HMRRTEKEIEQDVMRAIATIISEKGISSVTIKEVSNLSKTDVIVLERRFKNDEGLIKAYTSQ,0.0814
18,HMRSFADEGTVEEWIKQAIRENEAAVADYRKGKETAVKFLMGQVMRLSKGEANPADLEDKIKAKLD,0.025
19,HMRSFGTVAQARGRWKAFYVGPDKRRHTPGVTFSNPIRAQGWLAQELTLIELGQWTPPAQRREKAEVAS,-0.43
20,HMRSIVETLTDRELEIFQLIGNGFSTGEIARRLNLSPHTIETHRKNIKDKLGLSSGSELNKQAIQWVLSS,-1.15
21,HMRSKTSYAVWTPIQIDAGSQMQALQSKGFNTVLMEGGISVGIRSDKAQAQALLNRLQGAGFTGQLREVN,0.259
22,HMRSLATFEEEKIALRFWNYLQSEGIKSTLEEEGPRDWVIWVIDEEKIPSATQSLEKFNLNPDDPAFSN,-0.137
23,HMRSLVDRSVQAVTDHIRENALRVGDSLPGEAYFATSLGVSRAVMREAFGALAALRVIDVGNGRKPRVGAI,-0.438
24,HMRSMEKRLTAKVKRVQEGVQAKSQAGEQPFEVVKLMQRFPKLMQFGKHAEAETVLDKALELLGEE,-0.373
25,HMRSQLALVVRTGESQRLDNFLVNNLAWKSRNRLQGLIREGLVTVNGEKTKASRRVHLDDLVEIHL,-0.0501
26,HMRSTIYEFTVPPGQLESIRLDVYITSFVENATRSKVQEAIKQGYVWVNGKHEKASYTMLPGDKIYIELPI,-0.497

row,Sequence,soluble fraction (log2)
1,HMRSVEVAAEPGMVLEDRQTGFVGAVVAVEKSGGTHLVVLEDRHGLRRGFPLGPGFWLEGRPVVLAPPP,-0.141
2,HMRTANREKRIEASVKMMKAGYPVGYIIARVFMYEGWEEDYRQLLIYLSEKIPKDVSNPITFEVIS,-0.317
3,HMRTEGNLGAKVRVLRRSQGMTQAELARRLGISPSYLNLIEHNRRSFTADLLVKLAKILPVNLKT,0.04
4,HMRTITYSITPAHAGMSVERYLKQQHGYSTRTLVKLKHYPQGLQLNGQHARTVDLLQAGDTLAVTFLD,0.145
5,HMRTLSAGVAGRLRADILNGLLEPGRRLGMAELTERYGAGMSPVREALSRLVGEGLVQSEGQRGFRVA,0.199
6,HMRTMFGQRLRLARKRAGLSMQALADRVTPSVSAQAISKYEADQMMPSSSVLVGLGKALGVSLDFLVGGQ,-0.238
7,HMRTNVDISPKILEWVLSQVRNRTTNDVIETIQIWIKGEKPPTFNQVEKISKATGVPLGYFFLKTPPVED,-0.684
8,HMRTPLTGREEQVATLIGRGMTNSEIAESLSVDESTVKTHIGSILRKVHLRDRLQVALWFHGLPIE,-0.354
9,HMRTTYKTRLETLLAGPMSAGDRRFASSLLDFYNRKNRLTPGRARFVAQLEDRYSAEALAARQG,-0.00949
10,HMRTVEQFQIRKIYAISNALGISDSRADEDELHVLVSGLTGKDSIKELTYREASVVIERLEELQ,-0.62
11,HMRVDDITDTILNVLKEQGGFISVTDKSSPETINKLFGVSKKTYKKAIGAIYRKKLIIIEDDGIRLNS,-0.219
12,HMRVDRSALDSIPGVGPGRKRTLLHHFGSARAVEASGLADLESIRGISKALARKIYDFFHPE,0.161
13,HMRVELVVVPELRQQLLPEARELANSAGLQLRVRGQSPADETRTIVVTQSPAAGTRVAARSIVLVE,0.338
14,HMRVPTVIGMDEGTAKATLANASLKSNIVYESDETKENGKVLSQGIEQNKEVKAGTTVEIKVNKIE,0.22
15,HMRVTEVSYDKFLDMLSGGQVTVVELQENERELYFKAADENGAERIYSTGVFPDADLQKRLSESGVTF,-1.19
16,HMRYLHTMIRVSDLEESLNFFKLLDIHEVSRKENEQARFTLVFLSATGDEKLVENAKSPLIELTFN,-0.471
17,HMRYLMPDLVNRRYEPVRSLLEARGIRFGNVIFEPYEGLPPGIVLRQDPPAGHPLPRRRTVSLVVSGPGGR,0.109
18,HMRYQIAEARKLRDITQAELAEKMGTTQQTIQRYETNQVNIRMDKMIEMSEILNVSLAYLLGMSSSPEL,0.122
19,HMRYVVQVATFSSKNNAIRAADDLAGFVVVSNGYYRVRTGPYADRGEANAALAKARKAGYTDAFVDTS,0.0704
20,HMSAAYVYVTGTRVNQRDGPSTFDRVMGVLVEGTRVQLLRDQGQWAQIRSDLGTGWLSSGFLSRNG,0.0158
21,HMSADKAEAAEASLKSFNLRLQAAAMEAGKTFAPVTADQYAEYKAAWGTYIRKGIEGLSESEKKTINVG,-0.167
22,HMSAETREELVGREGVSLTDLRPSGFALFGQEKIDVVSESEFIEEGTSVRIVSVEGSRHIVRAKR,-1.24
23,HMSAISSARKEKIIEYLTDHGSARSSEIAEYVDLRPSRVRDYLGELVREDIVVAEGANRNRTYRLK,0.409
24,HMSAPGYRAVYPGMLESERQTAYELLSSSGFDVKINTSSGELEVTTDRYHEARMVMASQNIPK,-1.18
25,HMSAPVFRITPAGVVVNGLKRSDILTLTRIDGAMNTLPHNAGEVLVSTEGLAKGVYVITAGGKSLKFLV,0.00157
26,HMSAQPMEYSRFYSDVTQGRVAEVEIEGREINGRLSTGERFKTFSPETDNKALIGHLLDNGVVIEGKPP,0.0726

row,Sequence,soluble fraction (log2)
1,HMSASEKLFEARKNLNIVNVLGKNPVDRYDIVKILKHGDHYHIYDSKGNEGITYTNPKSLYPEAEFGEYQG,-0.228
2,HMSASTGTVSYKSGATTVWNSPSWHQVKRYVTFGDTVQLLGKTVDQNGATWYKVGDNQWIPELYLNVAG,-0.486
3,HMSATEPVHFDPNKSPEDMTVEELQAGILAKMANNGPVSDQMKKTVNENIWHDSLVNWLKSF,-0.0828
4,HMSATPQRMSIINELDSARKNLSAYDLRDSLKDKGHSFNISTIYRVLSFWIDVGVVHKMDSSNTYL,-0.315
5,HMSATVLVHVLGEVRKPGVVSLPEGSRVQDAITAAGGLTSRAKPGDLNLAARVSDGAQLVIGRSGSQVRTT,0.103
6,HMSAVVAPLPGLIQNILVKVGDTVHAGQHVLTMEAMKMENEIQTNRDGIIKDIKVRIGDSVNEGDTLIIL,-0.311
7,HMSDAGAIEPTIKEILASNPKAVEEYLAGNIKNINALIGQSMKALHGKADPQTVRNLLAKLLDEM,-0.487
8,HMSDAIQLEQKIGLEAIEWYLALSEQTDDKLLYQQWQSWLAADPQHQLAWSRIEQVNHGLNTL,-0.9
9,HMSDAVQLGLRLRAARERRGLSQQAVADALGLPRTAVTNMESGNRAVSTLELTKLAALYGQSTAFFLSP,0.291
10,HMSDDVELLGRLSDREVSVLQYLSQGYSNKQISEQMFISNKTVSTYKARLLLKLNAGSLVDLIEFAKRNTL,-0.961
11,HMSDEINYVIQINGKNRAEAEFGANLDKESIENLALEHERIKELLNGLTVRKIIVVPKKLVNIVA,0.178
12,HMSDESALLELVKQIIADNPKAVEEIRAGKEKAMGFLIGQAMKASRGSANPQIISRLVREQLG,0.0495
13,HMSDFDPTLILDLIKGSGEALTKREIARALGIKGGDKRIELKSHLKSMEAEGVIVKQAGGAYSVP,-0.00302
14,HMSDFSNLNLLELNSSELDLLLRRASSQGLTQMDLLKMARSQGLSEADLIKVKGKIDTSESIKR,-0.0416
15,HMSDFSSNLRRLRKRAGLSQDALAEKLSVARQTVSSWERGNSYPDLDMLVRISDALATDPNELLYPN,0.0655
16,HMSDGDFLQKIAEEILAQFPDKVKEYQKGKKGLIGFFMGELMKRSKGKADPKVATRILEEILSEKNGSS,-0.609
17,HMSDGTVYGSDGVIKVNLPQSGMLRIYATDGTTLVNRWQAAGIDTISMPRGLYIVRFDNQVWKVVV,0.00982
18,HMSDHSSLAGKEGVAVTPLRPAGTAEIDGKRMDVVTMGDYIKAGDHIKVVKVEGNRIIVAKN,-0.0102
19,HMSDHYEVLGVDRNATDDQIKKAYRRLARELHPDVNDAPESQEKFKLVTHAYEVLSDPDERRKYDMG,0.056
20,HMSDIYSLFERELGRTLSSYEYEIIGKWIEKGVSEDTIKRALKEAILNGVTNFKYIDKIIYDWSKN,-1.05
21,HMSDLFKYSPYKTLTEEQYKITYQIIERLKTDLSNGIPRISIIDGGAGTGKSILGIFLLKLLVDAQN,0.321
22,HMSDNLSASERKALSHMEGMESVRSSEVADLLGMSQRGAQKLLNRLVDKGLASSFGANRNRRYSVE,0.111
23,HMSDNLTIVRAVYSGLSQRQAAATYHVSRNTVSLLLRHARNRGWLTLEDLAQLDNAAFSKSL,0.354
24,HMSDPFSPTTTLKNRAKSVLSVDSFEDFKLFIKKMWQEKKEGVYQNPNVETWKDWDNISVKDAKILISLI,-0.327
